Laboratory results reported in patent publication US20230383001A1 (Kyowa Kirin, published 2023).

Target: T1, OX40 on OX40-positive helper T-cells in blood of patients (human, UniProt P43489 29-277)
T1 construct: whole, on cells; The cells came from trial patients; also called CD134; human OX40
T1 sequence (looked up): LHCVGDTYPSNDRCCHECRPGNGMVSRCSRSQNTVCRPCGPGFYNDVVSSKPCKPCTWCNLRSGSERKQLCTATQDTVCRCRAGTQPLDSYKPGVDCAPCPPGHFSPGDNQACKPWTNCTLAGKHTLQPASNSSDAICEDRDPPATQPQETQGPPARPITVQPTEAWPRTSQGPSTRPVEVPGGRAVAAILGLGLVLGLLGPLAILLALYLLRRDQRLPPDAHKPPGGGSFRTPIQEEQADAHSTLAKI
Test: flow cytometry of patients' blood after dosing: total versus unoccupied OX40-positive helper T cells (receptor occupancy, ex vivo)
Method: Blood samples for flow cytometry are collected from the subjects who voluntarily agree. When the timing overlaps the study drug administration, the sample is taken before the study drug administration. The OX40-positive cells and the CLA-positive memory T cells in the blood of the patients are counted. When OX40-positive cells in the blood are analyzed, OX40-positive cells in helper T cells are analyzed by using helper T cell markers. Therefore, OX40-positive cells in the blood herein means OX40 positive helper T cells in the blood.

binding result: binds
B1: KHK4083 (antibody, human IgG1, kappa, V domains shown)
VH: QITLKESGPTLVKPKQTLTLTCTFSGFSLSTSGMGVGWIRQPPGKALEWLAVIYWDDHQLYSPSLKSRLTITKDTSKNQVVLTMTNMDPVDTATYYCAHRRGAFQHWGQGTLVTVSS
VL: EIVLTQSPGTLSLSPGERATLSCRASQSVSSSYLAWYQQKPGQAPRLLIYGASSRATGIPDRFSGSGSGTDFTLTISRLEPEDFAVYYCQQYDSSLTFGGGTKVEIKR
notes: also called anti-OX40 antibody
